The target in this experiment is T1, CEACAM1 (Sino Biological) (human, UniProt P13688 35-428, limits assumed).
T1 construct: may be the same as CEACAM1-HIS; also called hCEACAM1; biotinylated soluble CEACAM1
T1 sequence: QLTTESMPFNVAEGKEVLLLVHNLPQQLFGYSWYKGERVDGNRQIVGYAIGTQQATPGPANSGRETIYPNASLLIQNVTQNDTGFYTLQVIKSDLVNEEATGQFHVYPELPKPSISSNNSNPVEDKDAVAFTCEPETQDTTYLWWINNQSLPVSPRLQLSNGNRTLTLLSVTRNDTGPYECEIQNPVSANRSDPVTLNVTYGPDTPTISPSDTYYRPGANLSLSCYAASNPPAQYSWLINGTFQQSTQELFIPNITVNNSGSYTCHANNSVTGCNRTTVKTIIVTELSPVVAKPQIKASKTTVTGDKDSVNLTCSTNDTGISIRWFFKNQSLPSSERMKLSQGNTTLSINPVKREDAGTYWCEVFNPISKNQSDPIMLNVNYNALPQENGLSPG
Description: SPR single-cycle. The protocol: To assess the binding of the humanized affinity matured IgGs, single cycle kinetics analysis was performed on crude supernatants using a Biacore T200 running Biacore T200 Control Software V2.0.1 and Biacore T200 Evaluation Software V3.0 (Uppsala, Sweden). Antibodies were diluted in HBS-P+ (GE Healthcare) to a final concentration of […]. At the start of each cycle, antibodies were loaded onto Fc2, Fc3 and Fc4 of the Protein A chip (GE Healthcare). IgGs were captured at a flow rate of 10 μl/min to give an immobilization level (RL) of ˜100 RU (a level calculated to obtain an Rmax of ˜50-150 RU once the analyte is bound). The surface was then allowed to stabilize. Single cycle kinetics data was obtained with CEACAM1 as the analyte at a flow rate of […] to minimize any potential mass transfer effects. Multiple repeats with the parent (VH2 N56Q/Vκ4 S27(f)A) antibody were performed to check the stability of the surface and analyte over the kinetic cycles. The signal from the reference channel Fc1 (no antibody) was subtracted from that of Fc2, Fc3 and Fc4 to correct for differences in non-specific binding to the reference surface. A three point, two-fold dilution range from 25 nM to 100 nM CEACAM 1 without regeneration between each concentration was used. The signal from each antibody blank run (no CEACAM1) was subtracted to correct for differences in surface stability. The association phase for the three injections of increasing concentrations of CEACAM1 was monitored for 200 seconds each time and a single dissociation phase was measured for 300 seconds following the last injection of CEACAM1. Regeneration of the Protein A surface was conducted using two injections of 10 mM glycine-HCL pH 1.5 followed by a stabilization period of 240 seconds.

Residue numbers refer to the chain shown, from its start. In names and notes the source's numbering stands.

B1: Parent VH/L16 (antibody, IgG4, V domains shown)
VH: EVQLLESGGGLVQPGGSLRLSCAASGFSFSDYYLYWVRQAPGKGLEWVATISVGGGQTSYADSVKGRFTISRDNSKNTLYLQMNSLRAEDTAMYYCTRGLYYGPAWFAYWGQGTLVTVSS
VL: DIVMTQSPDSLAVSLGERATINCKSSQSLLNSANQKNYLAWYQQKPGQPPKLLIYFASTRESGVPDRFSGSGSGTDFTLTISSLQAEDVAVYYCQSHYPYPFTFGGGTKVEIK
notes: IgG4 S241P, kappa
B1: binding was characterised by a dissociation constant (Kd) of 61 nM and the “fold better than Parent (KD)” value stood at 2.62 fold.

B2: He3/L4 #1 (antibody, IgG4, V domains shown)
VH: B1 VH with G99A, Y101T, F107L
VL: B1 VL with Y98F, P101Y, F102Y
notes: IgG4 S241P, kappa
As to B2, binding was put at a Kd of 99 nM and the “fold better than Parent (KD)” value worked out at 1.61 fold.

B3: He1/L3 (antibody, IgG4, V domains shown)
VH: B1 VH with A105S
VL: B1 VL with Y98F, Y100F
notes: IgG4 S241P, kappa
B3: the dissociation constant Kd was 263 nM and the “fold better than Parent (KD)” value was 2.1 fold.

B4: He3/L1 (antibody, IgG4, V domains shown)
VH: B1 VH with G99A, Y101T, F107L
VL: B1 VL with Y100F, P101Y, F102Y
notes: IgG4 S241P, kappa
As to B4, the dissociation constant (Kd) is 62 nM and the “fold better than Parent (KD)” value worked out at 2.57 fold.

B5: He1/L4 #1 (antibody, IgG4, V domains shown)
VH: B1 VH with A105S
VL: B1 VL with Y98F, P101Y, F102Y
notes: IgG4 S241P, kappa
In the case of B5, the dissociation constant Kd turned out to be 429 nM and the “fold better than Parent (KD)” value came to 1.28 fold.

B6: He3/L2 (antibody, IgG4, V domains shown)
VH: B1 VH with G99A, Y101T, F107L
VL: B1 VL with Y100F, F102Y
notes: IgG4 S241P, kappa
Take B6: binding was characterised by a dissociation constant (Kd) of 86 nM and the “fold better than Parent (KD)” value came out at 1.85 fold.

B7: He1/L5 (antibody, IgG4, V domains shown)
VH: B1 VH with A105S
VL: B1 VL with Y100F, P101A
notes: IgG4 S241P, kappa
Turning to B7, the affinity, expressed as Kd, was 307 nM and the “fold better than Parent (KD)” value came out at 1.8 fold.

B8: He1/L2 (antibody, IgG4, V domains shown)
VH: B1 VH with A105S
VL: B1 VL with Y100F, F102Y
notes: IgG4 S241P, kappa
As to B8, the dissociation constant (Kd) is 487 nM and the “fold better than Parent (KD)” value worked out at 1.13 fold.

B9: He3/L3 (antibody, IgG4, V domains shown)
VH: B1 VH with G99A, Y101T, F107L
VL: B1 VL with Y98F, Y100F
notes: IgG4 S241P, kappa
With B9, the affinity, expressed as Kd, was 163 nM and the “fold better than Parent (KD)” value is 0.98 fold.

B10: He1/L18 (antibody, IgG4, V domains shown)
VH: B1 VH with A105S
VL: B1 VL with Y98F
notes: IgG4 S241P, kappa
As to B10, the Kd was found to be 326 nM and the “fold better than Parent (KD)” value amounted to 1.69 fold.

B11: He3/L17 (antibody, IgG4, V domains shown)
VH: B1 VH with G99A, Y101T, F107L
VL: B1 VL with F102Y
notes: IgG4 S241P, kappa
For the molecule B11, the Kd came out at 83 nM and the “fold better than Parent (KD)” value was determined as 1.91 fold.

B12: He3/L6 (antibody, IgG4, V domains shown)
VH: B1 VH with G99A, Y101T, F107L
VL: B1 VL with Y100F, P101S
notes: IgG4 S241P, kappa
On to B12, for which the equilibrium dissociation constant (Kd) worked out at 93 nM and the “fold better than Parent (KD)” value stood at 1.72 fold.

B13: He3/L16 (antibody, IgG4, V domains shown)
VH: B1 VH with G99A, Y101T, F107L
VL: B1 VL
notes: IgG4 S241P, kappa
Take B13: the dissociation constant (Kd) is 72 nM and the “fold better than Parent (KD)” value worked out at 2.22 fold.

B14: He1/L17 (antibody, IgG4, V domains shown)
VH: B1 VH with A105S
VL: B1 VL with F102Y
notes: IgG4 S241P, kappa
With B14, binding was put at a Kd of 374 nM and the “fold better than Parent (KD)” value turned out to be 1.47 fold.

B15: He3/L19 (antibody, IgG4, V domains shown)
VH: B1 VH with G99A, Y101T, F107L
VL: B1 VL with Y98I, P99Y, Y100P, P101N
notes: IgG4 S241P, kappa
For B15, the Kd was 135 nM and the “fold better than Parent (KD)” value came to 1.18 fold.

B16: He3/L5 (antibody, IgG4, V domains shown)
VH: B1 VH with G99A, Y101T, F107L
VL: B1 VL with Y100F, P101A
notes: IgG4 S241P, kappa
Consider B16, for which the affinity, expressed as Kd, was 95 nM and the “fold better than Parent (KD)” value worked out at 1.68 fold.

B17: He1/L19 (antibody, IgG4, V domains shown)
VH: B1 VH with A105S
VL: B1 VL with Y98I, P99Y, Y100P, P101N
notes: IgG4 S241P, kappa
Turning to B17, the affinity, expressed as Kd, was 996 nM and the “fold better than Parent (KD)” value was 0.55 fold.

B18: He1/Parent VL (antibody, IgG4, V domains shown)
VH: B1 VH with A105S
VL: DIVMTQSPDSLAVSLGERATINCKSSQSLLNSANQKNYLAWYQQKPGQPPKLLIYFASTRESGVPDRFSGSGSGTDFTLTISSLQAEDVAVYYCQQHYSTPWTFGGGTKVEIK
notes: IgG4 S241P, kappa
As for B18, binding was characterised by a dissociation constant (Kd) of 544 nM and the “fold better than Parent (KD)” value is 1.01 fold.

B19: He1/L4#2 (antibody, IgG4, V domains shown)
VH: B1 VH with A105S
VL: B1 VL with F102Y
notes: IgG4 S241P, kappa
Turning to B19, the Kd was 301 nM and the “fold better than Parent (KD)” value was determined as 1.83 fold.

B20: He3/L4#2 (antibody, IgG4, V domains shown)
VH: B1 VH with G99A, Y101T, F107L
VL: B1 VL with F102Y
notes: IgG4 S241P, kappa
As to B20, the Kd came out at 130 nM and the “fold better than Parent (KD)” value is 4.24 fold.

B21: He1/L1 (antibody, IgG4, V domains shown)
VH: B1 VH with A105S
VL: B1 VL with Y100F, P101Y, F102Y
notes: IgG4 S241P, kappa
Turning to B21, the Kd was 568 nM and the “fold better than Parent (KD)” value is 0.97 fold.

B22: He1/L6 (antibody, IgG4, V domains shown)
VH: B1 VH with A105S
VL: B1 VL with Y100F, P101S
notes: IgG4 S241P, kappa
For the molecule B22, binding was characterised by a dissociation constant (Kd) of 402 nM and the “fold better than Parent (KD)” value is 1.37 fold.

B23: He3/Parent VL (antibody, IgG4, V domains shown)
VH: B1 VH with G99A, Y101T, F107L
VL: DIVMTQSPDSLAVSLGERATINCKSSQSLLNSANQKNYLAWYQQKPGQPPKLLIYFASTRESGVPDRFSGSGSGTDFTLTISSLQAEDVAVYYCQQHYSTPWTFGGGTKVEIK
notes: IgG4 S241P, kappa
Turning to B23, the Kd turned out to be 78 nM and the “fold better than Parent (KD)” value was found to be 2.03 fold.

B24: He1/L16 (antibody, IgG4, V domains shown)
VH: B1 VH with A105S
VL: B1 VL
notes: IgG4 S241P, kappa
On to B24, for which the dissociation constant (Kd) was 341 nM and the “fold better than Parent (KD)” value amounted to 1.62 fold.

B25: He1/L20 (antibody, IgG4, V domains shown)
VH: B1 VH with A105S
VL: B1 VL with Y98F, F102L
notes: IgG4 S241P, kappa
Take B25: the Kd was 264 nM and the “fold better than Parent (KD)” value turned out to be 2.09 fold.

B26: He3/L18 (antibody, IgG4, V domains shown)
VH: B1 VH with G99A, Y101T, F107L
VL: B1 VL with Y98F
notes: IgG4 S241P, kappa
Consider B26, for which the Kd amounted to 82 nM and the “fold better than Parent (KD)” value amounted to 1.94 fold.

Usually Kd stands for the constant that tells how readily two partners part at equilibrium. Low readings indicate tighter binding, high ones weaker binding.

The record behind these values is patent US20250388666A1 (BRIGHAM AND WOMEN S HOSPITAL, published 2025).
